Measurements published in patent US20100260668A1 (published 2010).
“And” between values parts separate entries of the source, which are not always exact repeats. Equal values may be shown once.

Tests used:
CD-20 = molecular target: T1, CD-20 (UniProt P11836 1-297, limits assumed); test: flow cytometry on cells carrying the target, 2 ug/mL; parent antibody
T1 construct: whole, on cells
T1 sequence (looked up): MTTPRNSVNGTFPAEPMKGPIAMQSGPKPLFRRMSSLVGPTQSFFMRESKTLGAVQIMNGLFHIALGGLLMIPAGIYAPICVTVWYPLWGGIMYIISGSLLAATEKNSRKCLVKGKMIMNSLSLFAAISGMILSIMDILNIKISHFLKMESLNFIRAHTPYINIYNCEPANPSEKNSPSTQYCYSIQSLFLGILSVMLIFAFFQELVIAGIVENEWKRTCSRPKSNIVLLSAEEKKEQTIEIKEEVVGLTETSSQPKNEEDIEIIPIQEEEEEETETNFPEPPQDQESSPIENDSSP

CD-80 [1] = molecular target: T2, CD-80 (UniProt P33681 35-288, limits assumed); test: as above
T2 construct: whole, on cells; also called B7-1
T2 sequence (looked up): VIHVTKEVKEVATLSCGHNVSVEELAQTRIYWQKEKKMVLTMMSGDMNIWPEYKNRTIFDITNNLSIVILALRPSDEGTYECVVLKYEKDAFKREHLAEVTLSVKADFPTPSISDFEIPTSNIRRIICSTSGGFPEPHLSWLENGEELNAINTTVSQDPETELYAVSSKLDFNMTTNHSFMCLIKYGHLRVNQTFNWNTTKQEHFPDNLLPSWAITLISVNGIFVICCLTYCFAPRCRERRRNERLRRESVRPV

CD-80 [2] = molecular target: T2, CD-80; test: flow cytometry on cells carrying the target, 2 ug/mL; C-terminal VD
CD-80 [3] = molecular target: T2, CD-80; test: flow cytometry on cells carrying the target, 2 ug/mL; N-terminal VD
IGF1R = molecular target: T3, IGF1R (UniProt P08069 31-1367, limits assumed); test: flow cytometry on cells carrying the target, 2 ug/mL; parent antibody
T3 construct: whole, on cells; also called insulin-like growth factor receptor

RON [4] = molecular target: T4, RON (UniProt Q04912 25-1400, limits assumed); test: as above
T4 construct: whole, on cells; also called macrophage stimulating protein receptor tyrosine kinase; MSP receptor

RON [5] = molecular target: T4, RON; test: flow cytometry on cells carrying the target, 2 ug/mL; N-terminal VD
DLL4 [6] = molecular target: T5, DLL4 (human, UniProt Q9NR61 27-685); test: flow cytometry on 293G-human DLL4 cells; reference antibody
T5 construct: whole, on cells; also called human DLL4

DLL4 [7] = molecular target: T5, DLL4; test: flow cytometry on cells carrying the target, 2 ug/mL; parent antibody
NRP1 = molecular target: T6, NRP1 (UniProt O14786 22-923, limits assumed); test: as above
T6 construct: whole, on cells; also called neuropilin 1

[8] = molecular target: T7, VEGF (VEGF 1-165 aa, R&D Systems 293-VE-010) (UniProt P15692 27-191); test: Direct bind ELISA, VEGF coated on plate; reference antibody printed beside DVD491
T7 construct: bought reagent; also called vascular endothelial growth factor

[9] = molecular target: T7, VEGF (VEGF 1-165 aa, R&D Systems …); test: Direct bind ELISA, VEGF coated on plate; reference antibody printed beside DVD492
[10] = molecular target: T7, VEGF (VEGF 1-165 aa, R&D Systems …); test: Direct bind ELISA, VEGF coated on plate; reference antibody printed beside DVD497
[11] = molecular target: T7, VEGF (VEGF 1-165 aa, R&D Systems …); test: Direct bind ELISA, VEGF coated on plate; reference antibody printed beside DVD498
[12] = molecular target: T7, VEGF (VEGF 1-165 aa, R&D Systems …); test: Direct bind ELISA, VEGF coated on plate; reference antibody printed beside DVD503
[13] = molecular target: T7, VEGF (VEGF 1-165 aa, R&D Systems …); test: Direct bind ELISA, VEGF coated on plate; reference antibody printed beside DVD504
[14] = molecular target: T7, VEGF (VEGF 1-165 aa, R&D Systems …); test: Direct bind ELISA, VEGF coated on plate; reference antibody printed beside DVD509
[15] = molecular target: T7, VEGF (VEGF 1-165 aa, R&D Systems …); test: Direct bind ELISA, VEGF coated on plate; reference antibody printed beside DVD510
[16] = molecular target: T8, DLL4 ECD/His tag (R&D 1506-D4-050) (UniProt Q9NR61 27-529); test: direct bind ELISA, DLL4 on plate; reference antibody
T8 construct: extracellular domain; Bought antigen coated on the ELISA plate; not shown: His tag

[17] = molecular target: T9, RON (MSP Receptor ECD-His tag, R&D Systems 1947-MS-050) (UniProt Q04912 25-957, limits assumed); test: Direct bind ELISA on RON; reference antibody
T9 construct: extracellular domain; not shown: His tag

T7 sequence (P15692 other isoform, or with tags, fused parts or gaps limits assumed): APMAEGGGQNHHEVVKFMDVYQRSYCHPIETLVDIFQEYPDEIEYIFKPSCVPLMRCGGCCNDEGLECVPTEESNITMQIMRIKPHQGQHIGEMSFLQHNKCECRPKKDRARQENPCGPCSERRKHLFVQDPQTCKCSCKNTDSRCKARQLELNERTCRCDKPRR

B1: AB001 (antibody, human IgG1, kappa, V domains shown)
VH: QVQLQQPGAELVKPGASVKMSCKASGYTFTSYNMHWVKQTPGRGLEWIGAIYPGNGDTSYNQKFKGKATLTADKSSSTAYMQLSSLTSEDSAVYYCARSTYYGGDWYFNVWGAGTTVTVSA
VL: QIVLSQSPAILSPSPGEKVTMTCRASSSVSYIHWFQQKPGSSPKPWIYATSNLASGVPVRFSGSGSGTSYSLTISRVEAEDAATYYCQQWTSNPPTFGGGTKLEIKR
notes: Parent antibody; also called anti-CD-20 parent antibody
CD-20
  FACS Geometric Mean: 95.8

B2: AB007 (antibody, human IgG1, lambda, V domains shown)
VH: QVQLQESGPGLVKPSETLSLTCAVSGGSISGGYGWGWIRQPPGKGLEWIGSFYSSSGNTYYNPSLKSQVTISTDTSKNQFSLKLNSMTAADTAVYYCVRDRLFSVVGMVYNNWFDVWGPGVLVTVSS
VL: ESALTQPPSVSGAPGQKVTISCTGSTSNIGGYDLHWYQQLPGTAPKLLIYDINKRPSGISDRFSGSKSGTAASLAITGLQTEDEADYYCQSYDSSLNAQVFGGGTRLTVLG
notes: Parent antibody; also called anti-CD-80 parent antibody
CD-80 [1]
  FACS Geometric Mean: 25.4

B3: DVD005 (bispecific antibody, human IgG1, lambda)
heavy: not shown
light: QIVLSQSPAILSPSPGEKVTMTCRASSSVSYIHWFQQKPGSSPKPWIYATSNLASGVPVRFSGSGSGTSYSLTISRVEAEDAATYYCQQWTSNPPTFGGGTKLEIKRTVAAPESALTQPPSVSGAPGQKVTISCTGSTSNIGGYDLHWYQQLPGTAPKLLIYDINKRPSGISDRFSGSKSGTAASLAITGLQTEDEADYYCQSYDSSLNAQVFGGGTRLTVLGQPKAAPSVTLFPPSSEELQANKATLVCLISDFYPGAVTVAWKADSSPVKAGVETTTPSKQSNNKYAASSYLSLTPEQWKSHRSYSCQVTHEGSTVEKTVAPTECS
notes: DVD-Ig; outer AB001 (CD-20), inner AB007 (CD-80); also called CD-20 and CD-80 DVD-Ig
CD-80 [2]
  FACS Geometric Mean C-terminal: 6

B4: DVD006 (bispecific antibody, human IgG1, kappa)
heavy: not shown
light: ESALTQPPSVSGAPGQKVTISCTGSTSNIGGYDLHWYQQLPGTAPKLLIYDINKRPSGISDRFSGSKSGTAASLAITGLQTEDEADYYCQSYDSSLNAQVFGGGTRLTVLGQPKAAPQIVLSQSPAILSPSPGEKVTMTCRASSSVSYIHWFQQKPGSSPKPWIYATSNLASGVPVRFSGSGSGTSYSLTISRVEAEDAATYYCQQWTSNPPTFGGGTKLEIKRTVAAPSVFIFPPSDEQLKSGTASVVCLLNNFYPREAKVQWKVDNALQSGNSQESVTEQDSKDSTYSLSSTLTLSKADYEKHKVYACEVTHQGLSSPVTKSFNRGEC
notes: DVD-Ig; outer AB007 (CD-80), inner AB001 (CD-20); also called CD-80 and CD-20 DVD-Ig
CD-80 [3]
  FACS Geometric Mean N-terminal: 70.7

B5: AB011 (antibody, human IgG1, kappa, V domains shown)
VH: EVQLLESGGGLVQPGGSLRLSCTASGFTFSSYAMNWVRQAPGKGLEWVSAISGSGGTTFYADSVKGRFTISRDNSRTTLYLQMNSLRAEDTAVYYCAKDLGWSDSYYYYYGMDVWGQGTTVTVSS
VL: DIQMTQFPSSLSASVGDRVTITCRASQGIRNDLGWYQQKPGKAPKRLIYAASRLHRGVPSRFSGSGSGTEFTLTISSLQPEDFATYYCLQHNSYPCSFGQGTKLEIKR
notes: Parent antibody
IGF1R
  FACS Geometric Mean: 1680

B6: AB005 (antibody, human IgG1, kappa, V domains shown)
VH: EVQLVQSGGGLVKPGGSLRLSCAASGFTFSSYAMHWVRQAPGKGLEWVAVISYDGSNKYYADSVKGRFTISRDNSKNTLYLQMNSLRAEDTAVYYCARFSGWPNNYYYYGMDVWGQGTTVTVSS
VL: DVVMTQSPLSLPVTPGEPASISCRSSQSLLHSNGFNYVDWYLQKPGQSPHLLIYFGSYRASGVPDRFSGSGSGTDFTLKISRVEAEDVGVYYCMQALQTPPWTFGQGTKVEIRR
notes: Parent antibody
RON [4]
  FACS Geometric Mean: 54.5

B7: DVD033 (bispecific antibody, human IgG1, kappa)
heavy: not shown
light: DVVMTQSPLSLPVTPGEPASISCRSSQSLLHSNGFNYVDWYLQKPGQSPHLLIYFGSYRASGVPDRFSGSGSGTDFTLKISRVEAEDVGVYYCMQALQTPPWTFGQGTKVEIRRTVAAPDIQMTQSPSSVSASVGDRVTITCRASQGISSWLAWYQQKPGKAPNLLIYEASSLQSGVPSRFGGSGSGTDFTLTISSLQPEDFATYYCQQANGFPWTFGQGTKVEIKRTVAAPSVFIFPPSDEQLKSGTASVVCLLNNFYPREAKVQWKVDNALQSGNSQESVTEQDSKDSTYSLSSTLTLSKADYEKHKVYACEVTHQGLSSPVTKSFNRGEC
notes: DVD-Ig; outer AB005 (RON), inner AB012 (HGF); also called RON and HGF DVD-Ig
RON [5]
  FACS Geometric Mean N-terminal: 6.46

B8: AB015 (antibody, human IgG1, kappa)
heavy: not shown
light: DIQMTQSPSSLSASVGDRVTITCRASQDVSTAVAWYQQKPGKAPKLLIYSASFLYSGVPSRFSGSGSGTDFTLTISSLQPEDFATTYYCQQSYTGTVTFGQGTKVEIKRTVAAPSVFIFPPSDEQLKSGTASVVCLLNNFYPREAKVQWKVDNALQSGNSQESVTEQDSKDSTYSLSSTLTLSKADYEKHKVYACEVTHQGLSSPVTKSFNRGEC
notes: Parent antibody; also called AB015
DLL4 [6]
  EC50: 0.5 nM
DLL4 [7]
  FACS Geometric Mean: 308

B9: AB016 (antibody, human IgG1, kappa, V domains shown)
VH: EVQLVESGGGLVQPGGSLRLSCAASGFSFSSEPISWVRQAPGKGLEWVSSITGKNGYTYYADSVKGRFTISADTSKNTAYLQMNSLRAEDTAVYYCARWGKKVYGMDVWGQGTLVTVSS
VL: DIQMTQSPSSLSASVGDRVTITCRASQSISSYLAWYQQKPGKAPKLLIYGASSRASGVPSRFSGSGSGTDFTLTISSLQPEDFATYYCQQYMSVPITFGQGTKVEIKR
notes: Parent antibody
NRP1
  FACS Geometric Mean: 338

B10: AB071 (antibody, human IgG1, kappa, L234A L235A, V domains shown)
VH: EVQLVESGGGLVQPGGSLRLSCAASGFTINASWIHWVRQAPGKGLEWVGAIYPYSGYTNYADSVKGRFTISADTSKNTAYLQMNSLRAEDTAVYYCARWGHSTSPWAMDYWGQGTLVTVSS
VL: DIQMTQSPSSLSASVGDRVTITCRASQVIRRSLAWYQQKPGKAPKLLIYAASNLASGVPSRFSGSGSGTDFTLTISSLQPEDFATYYCQQSNTSPLTFGQGTKVEIKR
notes: Parent anti-VEGF antibody
[8]
  EC50: 45.7 nM
[9]
  EC50: 45.7 nM
[10]
  EC50: 45.7 nM
[11]
  EC50: 45.7 nM
[12]
  EC50: 37.8 nM
[13]
  EC50: 37.8 nM
[14]
  EC50: 37.8 nM
[15]
  EC50: 37.8 nM

B11: AB072 (antibody, human IgG1, kappa, V domains shown)
VH: EVQLQQSGPELVKPGASVKMSCKASGYTFTSYVINWVKQKPGQGLEWIGLINPYNDGTKYNEKFKVKATLTSDKSSSTAYMELSSLTSEDSAVYYCASYYYGSRYYFDYWGQGTTLTVSS
VL: DIQMTQSSSYLSVSLGGRVTITCKASDHINNWLAWYQQKPGNAPRLLISGATSLETGVPSRFSGSGSGKDYTLSITSLQTEDVATYYCQQYWSIPLTFGAGTKLELKR
notes: also called AB072-DLL-4
[16]
  EC50: 1.29 nM and 0.7 nM and 1.99 nM and 1.85 nM

B12: AB005 (anti-RON (seq. 1) parent antibody) (antibody, human IgG1, V domains shown)
VH: EVQLVQSGGGLVKPGGSLRLSCAASGFTFSSYAMHWVRQAPGKGLEWVAVISYDGSNKYYADSVKGRFTISRDNSKNTLYLQMNSLRAEDTAVYYCARFSGWPNNYYYYGMDVWGQGTTVTVSS
VL: DVVMTQSPLSLPVTPGEPASISCRSSQSLLHSNGFNYVDWYLQKPGQSPHLLIYFGSYRASGVPDRFSGSGSGTDFTLKISRVEAEDVGVYYCMQALQTPPWTFGQGTKVEIRR
notes: also called AB005VH; AB005VL
[17]
  EC50: 0.26 nM and 0.69 nM
